Assay results reported in the supplement of paper PMC5998384.

Tests used:
HeLa Kyoto [1] = assay: solubility in G1/S (NP-40 vs SDS abundance) (log2 ratio); higher = more soluble; settings: cell cycle stage: G1/S
HeLa Kyoto [2] = assay: melting temperature (median over replicates), in situ; higher = more thermally stable
HeLa Kyoto [3] = assay: solubility change mitosis vs G1/S (difference of NP-40 vs SDS log2 ratios) (log2 ratio difference); higher = more soluble in mitosis
HeLa Kyoto [4] = assay: thermal stability score vs G1/S (z-score of summed log2 fold changes over temperatures); higher = more thermally stable than in G1/S
[5] = cell cycle stage: early G1 (4.5 h after nocodazole release)
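For melting temperature (median over replicates), in situ in this document: HeLa Kyoto cells synchronized by double thymidine or nocodazole block, proteins quantified by TMT10plex mass spectrometry, three independent biological replicates.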
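For solubility change mitosis vs G1/S (difference of NP-40 vs SDS log2 ratios) in this document: synchronized HeLa Kyoto cells (double thymidine block for G1/S, nocodazole release for mitosis), protein amounts in NP-40 versus SDS lysates quantified by mass spectrometry, three biological replicates.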
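For solubility in G1/S (NP-40 vs SDS abundance) in this document: HeLa Kyoto cells arrested at G1/S by double thymidine block, proteins quantified by TMT10plex mass spectrometry in mild NP-40 versus SDS extracts, three biological replicates.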
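For thermal stability score vs G1/S (z-score of summed log2 fold changes over temperatures) in this document: synchronized HeLa Kyoto cells, proteins quantified by TMT10plex mass spectrometry, three biological replicates, mitosis taken 0.5 h after nocodazole release, G1/S directly after double thymidine block.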

Row | Sequence | solubility in G1/S (log2) (HeLa Kyoto [1]) | melting temperature (HeLa Kyoto [2]; cell cycle stage: G1/S) [°C] | melting temperature (HeLa Kyoto [2]; cell cycle stage: mitosis) [°C] | solubility change mitosis (log2) (HeLa Kyoto [3]) | thermal stability score (HeLa Kyoto [4]; [5]) | thermal stability score (HeLa Kyoto [4]; cell cycle stage: mitosis)
1 | MAPLLGRKPFPLVKPLPGEEPLFTIPHTQEAFRTREEYEARLERYSERIWTCKSTGSSQLTHKEAWEEEQEVAELLKEEFPAWYEKLVLEMVHHNTASLEKLVDTAWLEIMTKYAVGEECDFEVGKEKMLKVKIVKIHPLEKVDEEATEKKSDGACDSPSSDKENSSQIAQDHQKKETVVKEDEGRRESINDRARRSPRKLPTSLKKGERKWAPPKFLPHKYDVKLQNEDKIISNVPADSLIRTERPPNKEIVRYFIRHNALRAGTGENAPWVVEDELVKKYSLPSKFSDFLLDPYKYMTLNPSTKRKNTGSPDRKPSKKSKTDNSSLSSPLNPKLWCHVHLKKSLSGSPLKVKNSKNSKSPEEHLEEMMKMMSPNKLHTNFHIPKKGPPAKKPGKHSDKPLKAKGRSKGILNGQKSTGNSKSPKKGLKTPKTKMKQMTLLDMAKGTQKMTRAPRNSGGTPRTSSKPHKHLPPAALHLIAYYKENKDREDKRSALSCVISKTARLLSSEDRARLPEELRSLVQKRYELLEHKKRWASMSEEQRKEYLKKKREELKKKLKEKAKERREKEMLERLEKQKRYEDQELTGKNLPAFRLVDTPEGLPNTLFGDVAMVVEFLSCYSGLLLPDAQYPITAVSLMEALSADKGGFLYLNRVLVILLQTLLQDEIAEDYGELGMKLSEIPLTLHSVSELVRLCLRRSDVQEESEGSDTDDNKDSAAFEDNEVQDEFLEKLETSEFFELTSEEKLQILTALCHRILMTYSVQDHMETRQQMSAELWKERLAVLKEENDKKRAEKQKRKEMEAKNKENGKVENGLGKTDRKKEIVKFEPQVDTEAEDMISAVKSRRLLAIQAKKEREIQEREMKVKLERQAEEERIRKHKAAAEKAFQEGIAKAKLVMRRTPIGTDRNHNRYWLFSDEVPGLFIEKGWVHDSIDYRFNHHCKDHTVSGDEDYCPRSKKANLGKNASMNTQHGTATEVAVETTTPKQGQNLWFLCDSQKELDELLNCLHPQGIRESQLKERLEKRYQDIIHSIHLARKPNLGLKSCDGNQELLNFLRSDLIEVATRLQKGGLGYVEETSEFEARVISLEKLKDFGECVIALQASVIKKFLQGFMAPKQKRRKLQSEDSAKTEEVDEEKKMVEEAKVASALEKWKTAIREAQTFSRMHVLLGMLDACIKWDMSAENARCKVCRKKGEDDKLILCDECNKAFHLFCLRPALYEVPDGEWQCPACQPATARRNSRGRNYTEESASEDSEDDESDEEEEEEEEEEEEEDYEVAGLRLRPRKTIRGKHSVIPPAARSGRRPGKKPHSTRRSQPKAPPVDDAEVDELVLQTKRSSRRQSLELQKCEEILHKIVKYRFSWPFREPVTRDEAEDYYDVITHPMDFQTVQNKCSCGSYRSVQEFLTDMKQVFTNAEVYNCRGSHVLSCMVKTEQCLVALLHKHLPGHPYVRRKRKKFPDRLAEDEGDSEPEAVGQSRGRRQKK [BAZ1B] | -2.14 | 50.7 | 51 | 1.24 | 1.09 | -0.274
2 | MAPPSTREPRVLSATSATKSDGEMVLPGFPDADSFVKFALGSVVAVTKASGGLPQFGDEYDFYRSFPGFQAFCETQGDRLLQCMSRVMQYHGCRSNIKDRSKVTELEDKFDLLVDANDVILERVGILLDEASGVNKNQQPVLPAGLQVPKTVVSSWNRKAAEYGKKAKSETFRLLHAKNIIRPQLKFREKIDNSNTPFLPKIFIKPNAQKPLPQALSKERRERPQDRPEDLDVPPALADFIHQQRTQQVEQDMFAHPYQYELNHFTPADAVLQKPQPQLYRPIEETPCHFISSLDELVELNEKLLNCQEFAVDLEHHSYRSFLGLTCLMQISTRTEDFIIDTLELRSDMYILNESLTDPAIVKVFHGADSDIEWLQKDFGLYVVNMFDTHQAARLLNLGRHSLDHLLKLYCNVDSNKQYQLADWRIRPLPEEMLSYARDDTHYLLYIYDKMRLEMWERGNGQPVQLQVVWQRSRDICLKKFIKPIFTDESYLELYRKQKKHLNTQQLTAFQLLFAWRDKTARREDESYGYVLPNHMMLKIAEELPKEPQGIIACCNPVPPLVRQQINEMHLLIQQAREMPLLKSEVAAGVKKSGPLPSAERLENVLFGPHDCSHAPPDGYPIIPTSGSVPVQKQASLFPDEKEDNLLGTTCLIATAVITLFNEPSAEDSKKGPLTVAQKKAQNIMESFENPFRMFLPSLGHRAPVSQAAKFDPSTKIYEISNRWKLAQVQVQKDSKEAVKKKAAEQTAAREQAKEACKAAAEQAISVRQQVVLENAAKKRERATSDPRTTEQKQEKKRLKISKKPKDPEPPEKEFTPYDYSQSDFKAFAGNSKSKVSSQFDPNKQTPSGKKCIAAKKIKQSVGNKSMSFPTGKSDRGFRYNWPQR [EXOSC10] | -0.517 | 46.6 | 48.7 | 0.289 | 4.13 | 7.46
3 | MAPPVAERGLKSVVWQKIKATVFDDCKKEGEWKIMLLDEFTTKLLASCCKMTDLLEEGITVVENIYKNREPVRQMKALYFITPTSKSVDCFLHDFASKSENKYKAAYIYFTDFCPDNLFNKIKASCSKSIRRCKEINISFIPHESQVYTLDVPDAFYYCYSPDPGNAKGKDAIMETMADQIVTVCATLDENPGVRYKSKPLDNASKLAQLVEKKLEDYYKIDEKSLIKGKTHSQLLIIDRGFDPVSTVLHELTFQAMAYDLLPIENDTYKYKTDGKEKEAILEEEDDLWVRIRHRHIAVVLEEIPKLMKEISSTKKATEGKTSLSALTQLMKKMPHFRKQITKQVVHLNLAEDCMNKFKLNIEKLCKTEQDLALGTDAEGQKVKDSMRVLLPVLLNKNHDNCDKIRAILLYIFSINGTTEENLDRLIQNVKIENESDMIRNWSYLGVPIVPQSQQGKPLRKDRSAEETFQLSRWTPFIKDIMEDAIDNRLDSKEWPYCSQCPAVWNGSGAVSARQKPRANYLEDRKNGSKLIVFVIGGITYSEVRCAYEVSQAHKSCEVIIGSTHVLTPKKLLDDIKMLNKPKDKVSLIKDE [STXBP3] | -0.0906 | 49 | 49 | -0.0474 | -0.14 | 0.708
4 | MAPVGVEKKLLLGPNGPAVAAAGDLTSEEEEGQSLWSSILSEVSTRARSKLPSGKNILVFGEDGSGKTTLMTKLQGAEHGKKGRGLEYLYLSVHDEDRDDHTRCNVWILDGDLYHKGLLKFAVSAESLPETLVIFVADMSRPWTVMESLQKWASVLREHIDKMKIPPEKMRELERKFVKDFQDYMEPEEGCQGSPQRRGPLTSGSDEENVALPLGDNVLTHNLGIPVLVVCTKCDAVSVLEKEHDYRDEHLDFIQSHLRRFCLQYGAALIYTSVKEEKNLDLLYKYIVHKTYGFHFTTPALVVEKDAVFIPAGWDNEKKIAILHENFTTVKPEDAYEDFIVKPPVRKLVHDKELAAEDEQVFLMKQQSLLAKQPATPTRASESPARGPSGSPRTQGRGGPASVPSSSPGTSVKKPDPNIKNNAASEGVLASFFNSLLSKKTGSPGSPGAGGVQSTAKKSGQKTVLSNVQEELDRMTRKPDSMVTNSSTENEA [DYNC1LI2] | 0.247 | 50.6 | 51.5 | 0.046 | -0.131 | 0.16
